From patent publication US20260116991A1 (HAINAN SIMCERE ZAIMING PHARMACEUTICAL, published 2026)
Numbering of substitutions follows the chain as printed.

B1: F1.136.7 human-murine chimeric antibody (antibody, human IgG1, kappa, V domains shown)
VH: EVQLQQSGPVMVKPGPSVKISCQTSGFTFTDYYIHWVKQSHGKSLEWIGLVFPYDGGTNYNQKFKDKATLTLDTSSSTAYMELNSLTSEDSAVYYCARAGGFSYALNYWGQGTSVTVSS
VL: DIQMTQSPSSLSASLGGKVTITCKASQDINNYIAWYQHKPGKGPRLLIHFTSTLQPGIPSRFSGSGSGRDYSFSISNLEPEDIATYYCLQYDNLLLTFGAGTKLELKR
B2: F1.145.22 human-murine chimeric antibody (antibody, human IgG1, kappa, V domains shown)
VH: QVQLQQSGTDLARPGASVKLSCKASGYTFTSFGISWVKQRTGQGLEWIGEIYPRSGSPYYNEKFTGKATLTADKSSSTAYMELRSLTSEDSAVYFCAKDFGSSYVFDYWGQGTALTVSS
VL: DIQMTQSPASLSASVGETVTITCRASENIYSYLTWYQQKQGKSPQLLVYNAKTLAEGVPSRFSGSGSGTQFSLKINSLQPEDFGTYYCQHHYGTPPTFGTGTKLDLKR
B3: F1.92.17 human-murine chimeric antibody (antibody, human IgG1, kappa, V domains shown)
VH: EVQLQQSGPELVKPGASVKMSCKASGYTFTDYNMHWVRQSHGKSLEWIGYINPNNGDTIYNQNFKGKATLTVNKSSSTAYMELRSLTSEDSAVYYCSRTITYYYSMDYWGPGTSVTVSS
VL: QIVLTQSPALMSASPGEKVTMTCSASSSVSYMYWYQQKPRSSPKPWIYLTSNLASGVPARFSGSGSGTSYSLTISSMEAEDAATYYCQQWSSNPLTFGAGTKLELKR
B4: F1.9.19 human-murine chimeric antibody (antibody, human IgG1, kappa, V domains shown)
VH: DVQLQESGPGLVKPSQSLSLTCSVTGYSITSGYYWNWIRQFPGNRLEWMAYISYDGINNYNPSLKNRISIARDTSTNQFFLKLNSVTSEDTATYYCATTTEVALFDHWGQGTTLTVSS
VL: DVLLTQTPLSLPVSLGDQASISCRSSQNIVHGNGNTYLEWFLQKPGQSPKLLIYKVSNRFSGVPDRFSGSGSGTDFTLKISRVEAEDLGLYYCFQASHVPWTFGGGTKLEIKR
B5: F1.120.16 human-murine chimeric antibody (antibody, human IgG1, kappa, V domains shown)
VH: EFQLQQSGPELVKPGASVKISCKASGYSFTDYNMNWVKQSNGKSLEWIGLIHPKFSVTSYNRKFKGKATLTVDQSSSTAYMQLNSLTSEDSAVYYCARWAGDYFDYWGQGTTLTVSS
VL: DIVLTQSPATLSVTPGDSVSLSCRASQSISNNLHWYQQKSHESPRLLIKYASQSISGIPSRFSGSGSGTDFTLTINSVETEDFGMYFCQQSNSWPQTFGGGTKLEIKR
B6: F1.118.4 human-murine chimeric antibody (antibody, human IgG1, kappa, V domains shown)
VH: QVQLQQSGAELAKPGASVKLSCKASGYSFTSYWIHWVKQRPGQGLEWIGYINPSSGYTKYNQKFKDKATLTADKSSSTAYMQLSSLTYEDSAVYYCARFGSSSFYFDYWGQGTTLTVSS
VL: DIVLTQSPASLAVSLGQRATISCRASQSVSSSSYSYMHWYQQKPGQPPKLLIKYASNLDSGVPARFSGSGSGTDFTLNIHPVEEEDTATYYCQHSWEIPAFGGGTKLEIKR
B7: F1.153.1 human-murine chimeric antibody (antibody, human IgG1, kappa, V domains shown)
VH: QIQLVQSGPELKKPGETVKISCKASGYTFTTAGMQWVQKMPGKGFKWIGWINTHSGEPQYAEDFKGRFAFSLETSASTAYLQISNLKNEDTATYFCARSFYYHGSSFFYFDYWGQGTTLTVSS
VL: DIVMTQSQKFMSTTVGDRVSITCKASQNVGTAVAWYQQKPGQSPKLLIYSASNRYTGVPDRFTGSGSGADFTLTISNMQSEDLADYFCQQYSRYPLTFGAGTKLELKR
B8: F1.111.11 human-murine chimeric antibody (antibody, human IgG1, kappa, V domains shown)
VH: EVQLQQSGPELVKPGASVKISCKASGYTFTDYYMNWVKQSHGKSLEWIGDIYPNNGDTTYNQRFKGKATLTVDKSSSTAYMELRSLASEDSAVYYCACPYNNPFGYWGQGTLVTVSA
VL: DVVMTQTPLSLPVSLGDQASISCRSSQSLVHSNGNTYLHWYLQKPGQSPKLLIYKVSNRFSGVPDRFSGSGSGTDFTLKISRVEAEDLGVYFCSQSTHVPWTFGGGTKLEIKR
B9: F1.62.9 human-murine chimeric antibody (antibody, human IgG1, kappa, V domains shown)
VH: QVQLQQSDAELVKPGASVKISCKVSGYIFTDHTIHWMKQRPEQGLEWIGYIYPRDGSIKYNENFKGKATLTADKSSSATYMQLNSLTSEDSAVYFCARPIYYDYAYYFDYWGQGTTLTVSS
VL: B8 VL with T7S, S26R, L51V, W101Y
B10: F1.115.8 human-murine chimeric antibody (antibody, human IgG1, kappa, V domains shown)
VH: EVQLQQSGPELVKPGASVKMSCKASGYTFTEYYMHWVKQSHGKSLEWIGYIYPNNGGNGYNQKFKGKATLTVDKSSSTAYMGLRSLTSEDSAVYYCVRGYYSNWYFDVWGTGTTVTVSS
VL: B4 VL with L4M, N28S, G32S, N35K, F41Y, L90V, A96G, W101F, G105S
B11: F1.3.9 human-murine chimeric antibody (antibody, human IgG1, kappa, V domains shown)
VH: QVQLQQPGTELVKPGASVKLSCKASGYTFTSYWIHWVKQRPGQGLEWIGNINPPNAGTNYNEKFKSKATLTVDKSSSTAYMQLSSLTSEDSAVYYCARGRWLLHDYWGQGTTLTVSS
VL: DIQMTQSPASLSISVGETVTITCRASENIYSNLAWYQQKQGKSPQLLVYGTKNLAEGVPSRFSGSGSGTQYSLKINSLQSEDFGNYYCQHFWGTPYTFGGGTKLEILR
B12: F1.110.24 human-murine chimeric antibody (antibody, human IgG1, kappa, V domains shown)
VH: EVKLVESGGGLVQPGGSLKLSCAASGFTFSDFYMYWVRQTPEKRLEWVAFISNGGGSTYYPDTVKGRFTISRDNVKNTLYLQMSRLKSEDTAMYYCARPDTSWFAYWGQGSLVTVSA
VL: DIQMTQTTSSLSASLGDRVTISCRASQDIDNYLNWYQQKPDGTVKVLISYTSRLHSGVPSRFSGSGSGTDYSLTISNLEQEDIATYFCQQGNTLPWTFGGGTKLEIKR

Target: T1, human GPC3-His protein (human, UniProt P51654 25-559)
T1 construct: Bought protein; also called human GPC3 protein; not shown: His tag
Experiment: ELISA, coated human GPC3, antibody 10 nM;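 note: plate coated with antigen at 1 µg/mL, antibodies bound 2 h at 37 °C, detected via HRP-conjugated secondary antibody and TMB substrate, absorbance read after acid stop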

Binder	OD450 nm [OD450]
B1	1.4
B2	2.35
B3	1.19
B4	1.85
B5	1.63
B6	1.75
B7	1.85
B8	2.46
B9	0.96
B10	1.9
B11	1.95
B12	1.18

Target: T1, human GPC3-His protein
Experiment: ELISA, coated human GPC3, antibody 0.001 nM

Binder	OD450 nm [OD450]
B1	0.1
B2	0.12
B3	0.09
B4	0.11
B5	0.14
B6	0.12
B7	0.1
B8	0.14
B9	0.09
B10	0.11
B11	0.11
B12	0.09

Target: T1, human GPC3-His protein
Experiment: ELISA, coated human GPC3, antibody 0.1 nM;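 note: antigen coated on 96-well plates at 1 µg/mL, antibody bound 2 h at 37 °C, detected with HRP-labeled secondary antibody and TMB substrate, acid-stopped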

Binder	OD450 nm [OD450]
B1	0.43
B2	0.94
B3	0.25
B4	0.58
B5	0.56
B6	0.74
B7	0.64
B8	1.61
B9	0.2
B10	0.83
B11	0.92
B12	0.42

Target: T2, GPC3 endogenously expressed on HepG2 cells (UniProt P51654 25-554)
T2 construct: whole, on cells
Experiment: FACS on HepG2 cells;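 note: flow cytometric binding of chimeric antibodies to cells, read as mean fluorescence intensity, EC50 obtained by curve fitting of the MFI data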
Protocol: The desired cells were expanded to a logarithmic growth phase in a T-75 cell culture flask, the medium was removed by pipetting, and the cells were washed twice with a PBS buffer, and digested with trypsin. Then a complete medium was added to stop the digestion, and the cells were blown into a single cell suspension. After counting, the cells were centrifuged, and the cell pellet was resuspended with an FACS buffer (PBS+2% fetal bovine serum) to 2×10⁶ cells/mL. The cell resuspension solution was added to a 96-well FACS reaction plate at 50 μl/well, and a chimeric antibody sample to be tested was added at 50 μl/well for incubation at 4° C. for 1 h. […] After the plate was centrifuged and washed 3 times with a PBS buffer, 100 μl of the resulting solution was assayed and analyzed by FACS (FACS Canto™, purchased from BD Biosciences). Data analysis was performed by software (FlowJo) to obtain the mean fluorescence intensity (MFI) of the cells. Then, analysis was performed by software (GraphPad Prism8), data were fitted, and EC₅₀ values were calculated.

Binder	EC50 [nM]	Max MFI [MFI]
B1	2	2240
B2	0.67	2160
B3	2.9	2300
B4	1.12	3780
B5	0.38	2080
B6	0.33	2810
B7	1.3	4100
B8	1.13	1880
B9	1.32	3250
B10	0.18	2460
B11	0.8	3810
B12	0.83	2270

Target: T1, human GPC3-His protein
Experiment: ELISA, coated human GPC3, antibody 0.01 nM;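 note: Plate-bound antigen coated at 1 µg/mL, antibody incubated 2 h at 37 °C, binding detected by HRP-conjugated secondary antibody with TMB substrate, read as absorbance at 450 nm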
Protocol: The specific method is described as follows: The antigen protein was diluted with PBS to a final concentration of 1 μg/mL, and the diluent was added to a 96-well ELISA plate at 50 μL/well. The plate was sealed with a plastic film and incubated at 4° C. overnight, washed twice with PBS the next day, and a blocking solution [PBS+2% (w/w) BSA] was added for blocking at room temperature for 2 h. […] After incubation at 37° C. for 2 h, the plate was washed 3 times with PBS. A horseradish peroxidase (HRP)-labeled secondary antibody (purchased from Merck, Cat. No. AP113P) was added for incubation at 37° C. for 1 h, and the plate was washed 5 times with PBS. A TMB substrate was added at 50 μL/well for incubation at room temperature for 10 min, then a stop solution (1.0M HCl) was added at 50 μL/well. An ELISA plate reader (Multimode Plate Reader, EnSight, purchased from Perkin Elmer) was used to read OD_{450 nm} values, with results as shown in Table 4 to Table 6, FIG. 1A, FIG. 1B, and FIG. 1C.

Binder	OD450 nm [OD450]
B1	0.14
B2	0.22
B3	0.11
B4	0.16
B5	0.22
B6	0.19
B7	0.15
B8	0.41
B9	0.1
B10	0.2
B11	0.21
B12	0.13

Target: T3, human GPC3 on CHO-K1-human GPC3 cells (clone CHOK1-hGPC3.2B5) (human, UniProt P51654 25-554)
T3 construct: whole, on cells; Stably transfected CHO-K1 clone 2B5
Experiment: FACS on CHOK1-hGPC3.2B5 cells;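 note: flow cytometry binding of chimeric antibodies to the cells, read out as mean fluorescence intensity, with the half-maximal concentration derived by curve fitting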

Binder	EC50 [nM]	Max MFI [MFI]
B1	1.41	9540
B2	1.18	9700
B3	2.04	9600
B4	1.76	2700
B5	0.52	9730
B6	0.53	9640
B7	0.91	3080
B8	1.08	9230
B9	3.49	2160
B10	0.33	9980
B11	2.78	3210
B12	0.9	9370

Target: T1, human GPC3-His protein
Experiment: ELISA, coated human GPC3, antibody 1 nM;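 note: antigen coated at 1 µg/mL on 96-well plates, antibody bound for 2 h at 37 °C, detected with HRP-labeled secondary antibody and TMB, absorbance read at 450 nm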

Binder	OD450 nm [OD450]
B1	0.63
B2	1.95
B3	0.68
B4	1.6
B5	1.23
B6	1.64
B7	1.56
B8	2.41
B9	0.63
B10	1.83
B11	1.66
B12	0.77

Target: T1, human GPC3-His protein
Experiment: ELISA, coated human GPC3, antibody 100 nM;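 note: antibodies bound to antigen-coated 96-well plates (1 µg/mL), 2 h at 37 °C, detected with HRP-labelled secondary antibody and TMB substrate, absorbance read at 450 nm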

Binder	OD450 nm [OD450]
B1	1.19
B2	2.53
B3	0.66
B4	1.88
B5	1.62
B6	1.53
B7	2.06
B8	2.7
B9	1.09
B10	2.01
B11	2.07
B12	0.62

Target: T1, human GPC3-His protein
Experiment: ELISA, coated human GPC3, antibody 0.0001 nM

Binder	OD450 nm [OD450]
B1	0.11
B2	0.09
B3	0.08
B4	0.1
B5	0.11
B6	0.1
B7	0.11
B8	0.1
B9	0.11
B10	0.09
B11	0.1
B12	0.08
